Experimental data reported in patent US20200339680A1 (Alector, published 2020).

Key:
human TMEM106B [1] = target: T1, human TMEM106B (human, UniProt Q9NUM4 2-274); test: FACS A549 1 ug/ml
T1 construct: full-length, transiently expressed on HEK293 cells, or natively expressed on HeLa, U251 and A549 cells (the cell is named under assay); also the source of the Pepscan peptides; also called huTMEM106B; huTMEM
Procedure: (§1) Purified anti-TMEM106B antibodies were evaluated for their binding affinity to various TMEM106B-expressing cell lines including HEK293 transiently transfected with human/cyno/mouse TMEM106B, as well as HeLa cells and A549 cells. Antibodies tested for this experiment were mouse IgGs purified from hybridoma supernatant. Affinity binding to cells was determined as follows. Briefly, 1×10\hat{ }5 cells were aliquoted per well in 96-well round bottom plates and incubated with 50 μL of purified anti-TMEM106B antibody at various concentrations (10× dilutions starting at 10 μg/ml) in FACS buffer (PBS+2% FBS+1 mM EDTA). […] Sorting was performed on a iQue (Intellicyt), with sort gates drawn to exclude dead (propidium iodide+) cells. Binding data was analyzed using median fluorescent intensity (MFI) and graphed in Prism. Values presented are MFI.

human TMEM106B [2] = target: T1, human TMEM106B; test: FACS HEK+huTMEM 10 ug/ml;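 further: flow cytometric binding of purified mouse IgG antibodies to HEK293 cells transiently expressing human TMEM106B, read as median fluorescence intensity on live cells with propidium iodide-positive cells excluded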
Procedure: as §1

human TMEM106B [3] = target: T1, human TMEM106B; test: FACS HEK+huTMEM 1.0 ug/ml;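 further: binding of purified mouse IgG antibodies to HEK293 cells transiently expressing human TMEM106B, read by flow cytometry as median fluorescence intensity of live, propidium iodide-negative cells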
Procedure: as §1

mouse TMEM106B = target: T2, mouse TMEM106B (mouse, UniProt Q80X71 2-275); test: FACS Neuro2a;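 further: flow cytometry of antibody binding to cells: hybridoma supernatant or purified antibody at 10 µg/ml, 1 h on ice, secondary detection, propidium iodide–positive dead cells gated out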
T2 construct: transiently expressed on HEK293 cells, or native on mouse Neuro2a cells; also called moTMEM106B; murine TMEM106B

human TMEM106B [4] = target: T1, human TMEM106B; test: FACS HeLa
Procedure: (§2) All cells were cultured in either T75 or T150 flasks. […] The enzyme was quenched by addition of fresh media, and the cells were then distributed into 96-well plates for FACS analysis.
(§3) FACS analysis was performed as follows. Each cell type was aliquoted in 96-well round bottom plates (2×10^5 cells per well), washed once with FACS buffer (PBS+2% FBS+1 mM EDTA), and incubated with 50 μL of hybridoma supernatant or purified antibody (10 μg/ml in FACS buffer) on ice for 1 hour. […] Following this secondary incubation, the cells were again washed 2× with ice-cold FACS buffer and resuspended in a final volume of 50 μL of FACS buffer+0.25 μl/well propidium iodide (Fisher Scientific #4BDB556463). Analysis was performed on a FACSCanto system (BD Biosciences) or iQue (Intellicyt), with sort gates drawn to exclude dead (i.e., propidium iodide positive) cells.

human TMEM106B [5] = target: T1, human TMEM106B; test: FACS U251
Procedure: as §2, §3

human TMEM106B [6] = target: T1, human TMEM106B; test: FACS HEK+huTMEM 0.1 ug/ml;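 further: flow cytometry binding of purified mouse IgG antibodies to HEK293 cells transiently expressing TMEM106B, read as median fluorescence intensity on live cells (propidium iodide negative gating)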
Procedure: as §1

human TMEM106B [7] = target: T1, human TMEM106B; test: FACS HEK+huTMEM 0.1 ug/ml (2nd column so headed);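 further: flow cytometry binding of purified anti-TMEM106B mouse IgG to HEK293 cells transiently transfected with TMEM106B, read as median fluorescence intensity on live (propidium iodide-negative) cells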
human TMEM106B [8] = target: T1, human TMEM106B; test: FACS A549 10 ug/ml
Procedure: as §1

human TMEM106B [9] = target: T1, human TMEM106B; test: FACS A549;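 further: flow cytometry of cells incubated on ice for 1 h with hybridoma supernatant or purified antibody at 10 µg/mL, dead propidium iodide-positive cells gated out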

| Binder | MFI (human TMEM106B [1]) [MFI] | MFI (human TMEM106B [2]) [MFI] | MFI (human TMEM106B [3]) [MFI] | MFI (mouse TMEM106B) [MFI] | MFI (human TMEM106B [4]) [MFI] | MFI (human TMEM106B [5]) [MFI] | MFI (human TMEM106B [6]) [MFI] | MFI (human TMEM106B [7]) [MFI] | MFI (human TMEM106B [8]) [MFI] | MFI (human TMEM106B [9]) [MFI] |
| --- | --- | --- | --- | --- | --- | --- | --- | --- | --- | --- |
| TM-27 (antibody, V domains shown) VH: QVQLQQSGAELVRPGTSVKVSCKASGYALTNYLIEWVKQRPGQGLEWIGVINPGSGSTKYNEKFKGKATLTADKSSSTAYMQLSSLTSEDSAVYFCARIIYDHDWYFDVWGTGTTVTVSS VL: QIVLTQSPAIMSASPGEKVTISCSASSSISYMYWYQQKPGSSPKPWIYRTSTLASGVPARFSGSGSGTSYSLTISSMEAEDAATYYCQQYHSYPRTFGGGTKLEIK | 431 | 4140 | 3040 | 1580 | 2960 | 1320 | 1700 | 744 | 622 | 1930 |
| TM-44 (antibody, V domains shown, mouse IgG (hybridoma)) VH: EVQLVESGGGLVKPGGSLKLSCAASGFTFSDYGMHWVRQAPEKGLEWVAYISSGSSTIYYADTVKGRFTISRDNAKNTLFLQMTSLRSEDTAMYYCARNYGSPYAMDYWGQGTSVTVSS VL: not shown | 404 | 512 | 337 | 202 | 168 | 522 | 309 | 300 | 466 | 392 |
| TM-25 (antibody, V domains shown) VH: EVQLVESGGDLVKPGGSLRLSCAASGFTFSGYGMSWIRQTPDKRLEWVATISSGGRYTVYPDSVKGRFTMSRDNVKNTLYLQMSSLKSEDTALYYCARDNFYSYAMDYWGLGTSVTVSA VL: DIVMTQAAFSNPVTLGTSASISCRSSKSLLHSNGITYLFWYLQKPGQSPQLLIYQMSNLASGVPDRFSSSGSGTDFTLRISRVEAEDVGVYYCAQNLELWTFGGGTKLEIK | 4530 | 60300 | 64700 | 354 | 2560 | 1110 | 32800 | 4310 | 7000 | 1700 |
| TM-33 (antibody, V domains shown, mouse IgG (hybridoma)) VH: EFQLQQSGPELVKPGASVKISCKASGYSFTDYNMNWVKQSNGKSLEWIGVINPNYGTTSYNQKFKGKATLTVDQSSSTAYMQLNSLTSEDSAVYYCASSYWGQGTLVTVSA VL: DIVMTQSQKFMSTTVGDRVSITCKASQNVGTAVAWYQQKPGQSPKLLIYSASNRYTGVPDRFTGSGSGTDFTLTISNMQSEDLADYFCQQYSSYPYTFGGGTKLEIK | 366 | 12100 | 5630 | 233 | 148 | 202 | 1750 | 651 | 514 | 298 |
| TM-35 (antibody, V domains shown) VH: QVQLQQSGPELVRPGTSVKISCKAPGYTFTRHWMQWVRQRPGQGLEWIGEILPGSNNIYYNEKVKGKATLTVDTSSSTSYMQLSSLTSEDSAVYFCARSLYDYDGVFAYWGQGTLVTVSA VL: DVLMTQIPLSLPVSLGDQASISCRSSQSIVHRNGNTYLEWYLQKPGQSPKLLIYKVSNRFSGVPDRFSGSGSGTDFTLKISRVEAEDLGVYYCFQGSHVPYTFGGGTKLEIK | 3270 | 48700 | 55400 | 181 | 241 | 370 | 22600 | 4080 | 4200 | 982 |
| TM-48 (antibody, V domains shown) VH: QVQLQQSGPELVKPGASVKLSCKASGYTFTSYDINWVKQRPGQGLEWIGWIYPRDGNTQYIEKLKGKATLTVDTSSSTAYMELHSLTSEDSAVYFCARWIFYAMDYWGQGTSVTVSS VL: DVLMTQTPLSLPVSLGNQASISCRSSQSIVHGNGNTYLEWYLQKPGQSPKLLIYKVSNRFSGVPDRFSGSGSGTDFTLKISRVEAEDLGVYYCFQGSHLPYTFGGGTKLEIK | 1580 | 38200 | 39900 | 292 | 219 | 346 | 21600 | 4050 | 2450 | 677 |
| TM-29 (antibody, V domains shown) VH: QVQLRQSGAELVRPGASVKLSCKASGYTFTDYYINWVKQRPGQGLEWIARIYPGSGYTYYNEKFKGKATLTAEGSSNTAYMQLSSLTSEDSAVYFCANHYTNPFAYWGQGTLVTVSA VL: DIVMTQAAFSNPVTLGTSASISCRSSKSLLHYNGITYLYWYLQKPGQSPQLLIYQMSNLASGVPDRFSSSGSGTDFTLRISRVEAEDVGVYYCAQNLELPYTFGGGTKLEIK | 2480 | 61200 | 63300 | 1480 | 1650 | 730 | 24400 | 4050 | 4200 | 1410 |
| TM-42 (antibody, V domains shown) VH: QVQLQQSGAELAKPGASVKLSCKASGYTFTNYWMHWVKKRPGQGLEWIGYINPSSGYTKYNQKFKDKATLTADKSSNTAYMQLSSLTYEDSAVYYCTREGGSISDWYFDVWGTGTTVTVSS VL: DIVMTQAAPSLPVTPGESVSISCRSSKSLLHSNGNTYLYWFLQRPGQSPQLLIYRMSNLASGVPDRFSGSGSGTAFTLRISRVEAEDVGVYYCMQHLEYPYTFGGGTKLEIK | 1780 | 60100 | 58100 | 237 | 215 | 326 | 16700 | 2070 | 3300 | 947 |
| TM-45 (antibody, V domains shown) VH: QVQLQQSGAELAKPGASVKLSCKASGYTFTNYWMHWVKKRPGQGLEWIGYINPSSGYTKYNQKFKDKATLTADKSSNTAYMQLSSLTYEDSAVYYCTREGGSISDWYFDVWGTGTTVTVSS VL: DIVMTQAAPSLPVTPGESVSISCRSSKSLLHSNGNTYLYWFLQRPGQSPQLLIYRMSNLASGVPDRFSGSGSGTAFTLRISRVEAEDVGVYYCMQHLEYPYTFGGGTKLEIK | 1860 | 58100 | 57600 | 187 | 191 | 517 | 21300 | 2500 | 3240 | 819 |
| TM-37 (antibody, V domains shown) VH: QVQLQQSGAELAKPGASVKLSCKASGYTFTSYWMHWVKQRPGQGLEWIGYVNPSSGYTKNNQKFKDKVTLTADKSSSTAYMQLSSLTYEDSAVYYCAREGGSISDWYFDVWGTGTTVTVSS VL: DIVMTQAAPSVPVTPGESVSISCRSSKSLLHSNGNTYSYWFLQRPGQSPQLLIYRMSNLASGVPDRFSGSGSGTAFTLRISRVEAEDVGVYYCMQHLEYPYTFGGGTKLEIK | 2980 | 50500 | 58700 | 208 | 254 | 408 | 29400 | 3920 | 4210 | 1040 |
| TM-23 (antibody, V domains shown) VH: QVQLQQSGAELIRPGTSVKVSCKASGYAFTNYLIEWVKKRPGQGLEWIGVINPGSGITNYNEKFKGKATLTADKSSSTAYMQLSSLTSEDSAVYFCARSDFITTVVADYWGQGTTVTVSS VL: DIVVTQTPLSLPVSFGDQVSISCRSSQSLTNYYGNTYLSWYLHKPGQSPQLLIYGISNRFSGVPDRFSGSGSGTDFTLKISTIKPEDLGMYYCLQGTHQPRTFGGGTKLEIK | 398 | 12400 | 3900 | 333 | 308 | 278 | 2410 | 1100 | 757 | 1090 |
| TM-26 (antibody, V domains shown) VH: QVQLQQSGAELIRPGTSVKVSCKASGYAFTNYLIEWVKKRPGQGLEWIGVINPGSGITNYNEKFKGKATLTADKSSSTAYMQLSSLTSEDSAVYFCARSDFITTVVADYWGQGTTVTVSS VL: DIVVTQTPLSLPVSFGDQVSISCRSSQSLTNYYGNTYLSWYLHKPGQSPQLLIYGISNRFSGVPDRFSGSGSGTDFTLKISTIKPEDLGMYYCLQGTHQPRTFGGGTKLEIK | 380 | 3850 | 3340 | 324 | 384 | 300 | 1960 | 1000 | 509 | 952 |
| TM-28 (antibody, V domains shown) VH: EVQLQQSGPVLVKPGPSVKISCMASVFTFNDYYIHWVKQSHGKSLEWIGLVYPYNGGTNYNQNFKGKATLTVDTSSRTAYMELNSLTSEDSAVYYCARSYFSNPIGYWGQGTLVTVSE VL: DIVMTQSPSSLSVSVGEKVTVSCKSSQSLLNSGNQKNYLAWYQQKPGQPPKLLIYGASTRESGVPDRFTGSGSGTDFTLTISSVQAEDLAVYYCQNDHSYPLTFGAGTKLELK | 2630 | 64800 | 66400 | 2740 | 2790 | 998 | 19800 | 3340 | 4350 | 2000 |
